{
  "source": "paper PMC4692482",
  "about": "“Structure and Stability of the Dimeric Triosephosphate Isomerase from the Thermophilic Archaeon Thermoplasma acidophilum” (PLoS ONE, 2015)",
  "target": "the molecule itself",
  "assay": "AUC; equilibrium sedimentation, 20 mM Tris-HCl pH 7.5, 200 mM NaCl, 20°C, 20,000 and 26,000 rpm, 12.6, 16.8 and 21.0 uM protein; data fit a homogeneous dimer model; reversible monomer-dimer and monomer-trimer models rejected",
  "data": [
    {"protein": "triosephosphate isomerase from Thermoplasma acidophilum (enzyme, UniProt Q9HLB6 1-216, looked up, Cloned into pET-28a(+) with a C-terminal His6-tag; no tag removal is described; The monomer mass used for AUC is 24,671 daltons; The crystals with glycerol-3-phosphate (G3P) hold the same protein; also called TaTPI; apo-TaTPI; source: E. coli Rosetta 2(DE3)pLysS, purified (heat step 60°C, HiTrap Chelating, SEC, anion exchange, SEC)) MYTAIVNLKTYREATGANFTRFMEKFEPVQGKFELIFSPSLLDLEKAAKCGKFRFFAQHVDAEPYGAYTGHVPMDMMIDLGITGSILNHSERRLPRDTIINTLKKASKLDFTIVLCVENAEEAKYFREYEPDFIAYEPRDLIGGDVSVSTAKPEIIEDIVKIYEGTGTSVLVGAGIKTGEDVRRSIGLGARGILVASGVVKSADPTKSLNSLIELK", "values": [
      {"measurement": "stoichiometry N", "result": 2}
    ]}
  ]
}
